These results are taken from US20250136701A1 (GO THERAPEUTICS, published 2025).

For experiment [1], the target named is T1, cMET-Tn peptide PTKSFISGGSTITGVGKNLN, glycosylated with GalNAc on the serine and threonine residues (O-linked GalNAc on the serine at position 10 and the threonine at position 11; N-terminal biotin in the form described for Biacore and Octet).
T1 construct: Synthetic 20-residue glycopeptide of cMET; GalNAc sites not given; also called Tn-glycosylated cMET peptide; cMET glycopeptide
T1 peptide: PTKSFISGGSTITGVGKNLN
The experiment is described as follows: BLI (Octet), peptide on biosensor, apparent affinity. Background: BLI is a label-free optical method that tracks binding on a fibre tip over time.

Experiment [2] deals with T1, cMET-Tn peptide PTKSFISGGSTITGVGKNLN, …. As to the kind of experiment: SPR (Biacore), antibody immobilised, peptide as analyte. The text has this: Antibody affinity assays can be carried out using surface plasmon resonance (e.g., using a Biacore system (Cytiva)). In a surface plasmon resonance assay, one or more antibodies can be immobilized onto a biosensor and presented with an analyte (e.g., the cMET-Tn peptide Biotin-[…] (the amino acid portion of which is SEQ ID NO: 285; bold and underlined residues indicate GalNAc glycosylation sites) or a negative control analyte such as an unglycosylated cMET peptide (Biotin-[…] (the amino acid portion of which is SEQ ID NO:286)). The antibodies are contacted with different concentrations of the analyte, for example concentrations of 2.5 nM, 7.4 nM, 22 nM, 66 nM and 200 nM. Affininty is measured using multi-cycle kinetics in triplicate for each analyte concentration, with 1 min association and 5 min dissociation. […] The affinity is determined by fitting the binding curve to a specific model: kinetic fit (1:1 model) or if applicable heterogenous ligand binding model. The error (>95% confidence) was calculated by how close the generated curve matches the model.
(SPR reads the build-up and loss of mass on a sensor chip optically.)

A further experiment has as its target T2, MUC1-Tn.
T2 construct: Specificity control in the Biacore and Octet assays
As to the kind of experiment: BLI (Octet), peptide on biosensor, apparent affinity.

B1: 14E9 (antibody, V domains shown)
VH: QEQLVESGGGLVEPGASLTLTCKASGIDFSSYWICWVRQAPGKGLEWVGCIYTGSGGNTYYATWAKGRFTVSETSSTTVTLRMTSLTAADTATYFCARMGYSAGYIGATYITVGAFNLWGQGTLVTVSS
VL: DVVMTQTPASVGAAVGGTVTIKCQASQSISNWLAWYQQKPGQPPKLLIYSASYLESGVPSRFSGSGSGTEFTLTISDLECADAATYYCQCTYGSSGDSGSWDFGGGTEVVVKG
notes: Rabbit monoclonal antibody cloned from B cells of immunised New Zealand White rabbits
With B1, the Kd in experiment [1] came out at 1.5 nM.

B2: 39A3 (antibody, V domains shown)
VH: QSLEEYGGDLVKPGASLTLTCTASGLDFSGIYWACWVRQAPGKGLEWIACMDNRVTYATWAKGRFTSSKTSSTTVTLQMTSLTAADTATYFCARGGYGGRGLVFNLWGQGTLVTVSS
VL: DPVLTQTPPSVSAAVGGTVTIKCQSSQSVYNNNELSWYQQKPGQPPKLLIYDASTLASGVPSRFKGSGSGTQFTLTISGVQCDDAATYYCQGIYYIGDWYSAFGGGTEVVVKG
notes: Rabbit monoclonal antibody cloned from B cells
Consider B2, for which the Kd in experiment [1] was found to be 52 nM.

B3: 15C4.1D8.1G2 (antibody, V domains shown)
VH: QVQLQQSDAELVKPGASVKISCKASGYTFTDHAIHWVKQKPEQGLEWIGYFSPGNGDIKYNEKFKGKATLTADKSSSTAYMQLNSLTSEDSAVYFCKRSLPGPMDCWGQGTSVTVSS
VL: NIVMTQSPKSMSMSVGERVTLSCKASENVGIYVSWYQQKPEQSPKLLIYGPSNRYTGVPDRFTGSGSATDFTLTISSVQAEDLADYHCGQSYSYPFTFGSGTKLEIK
notes: Mouse monoclonal antibody from a hybridoma (Balb/c mice immunised with the KLH-conjugated Tn-cMET glycopeptide)
Regarding B3, the Kd in experiment [1] was 2.83 nM; in experiment [2], 7 nM.

B4: 8H3.2B9.2C7 (antibody, V domains shown)
VH: QVQLQQSDAELVKPGASVKISCKASGYTFTDHAIHWVKQRPEQGLEWIGYFSPGNGDIKYNEKFKDKATLTADKSSSTAYMQLNSLTSEDSAVYFCKRSLPGDFDYWGQGTTLTVSS
VL: DVQITQSPSYLAASPGETITINCRASKSVSEYLAWYQEKPGKTNKLLIYSGSTLHSGIPSRFSGSGSGTDFTLTITSLAPEDFAMYFCQQHNEYPFTFGAGTKLELK
notes: Mouse monoclonal antibody from a hybridoma; also called GO-8H3
For B4, the values for the Kd in experiment [1] and in experiment [2] were 7 nM and 6.26 nM, respectively.

B5: 16E12.1D9.1B11 (antibody, V domains shown)
VH: QVQLQQSDAELVKPGASVKISCKASGYTFTDHAIHWVKQKPEQGLEWIGYFSPGNDDVRYSEKFKGKATLTADKSSSTAYMQLNSLTSEDSAVYFCKRSLPGDFDYWGQGTTLTVSS
VL: DVQISQSPSYLAASPGETITINCRASKSINNYLVWYQEKPGKTIKPLIYSGSTLQTGTPSRFSGSGSGTDFSLTISSLEPEDFAMYYCQQHNEYPFTFGAGTKLELK
notes: Mouse monoclonal antibody from a hybridoma
For B5, the Kd with MUC1-Tn came to 2000 nM; in experiment [1], 19.2 nM; in experiment [2], 1.43 nM.
